Assay results taken from PMC12802937.

Assays:
[1] = target: Lge1-CT E278K/E282K (budding yeast) (UniProt Q02796); experiment: SPR; Lge1-CT immobilised on a CM5 chip, Bre1-LR flown over; Biacore 8K, 25°C, 20 mM HEPES (pH 7.5), 200 mM sodium chloride, 0.02% Tween 20
[2] = target: Lge1-CT D287K (budding yeast) (UniProt Q02796); experiment: as above
[3] = target: Lge1-CT D312K (budding yeast) (UniProt Q02796); experiment: as above
[4] = target: Lge1-CT (Lge1 residues 261–332), intein-chitin binding domain (CBD) tag construct (budding yeast) (UniProt Q02796); experiment: as above
[5] = target: Bre1-LR K506E/K510E (budding yeast) (UniProt Q07457); experiment: ITC; Lge1-CT (50–60 μM) injected into Bre1-LR (15 μM); 25°C, 20 mM TRIS (pH 7.5), 300 mM sodium chloride
[6] = target: Bre1-LR K506E/K510E (budding yeast) (UniProt Q07457); experiment: ITC; Lge1-CT (50–60 μM) injected into Bre1-LR (15 μM); 25°C, 20 mM TRIS (pH 7.5), 200 mM sodium chloride
[7] = target: Bre1-LR I397K (budding yeast) (UniProt Q07457); experiment: as above

Substance: Bre1-LR (Bre1 residues 227–700, LBD and RING domains), 6× histidine tag (from UniProt Q07457 227-700) (domain or fragment)
- Kd [1]: 95.6 nM
- Kd [2]: 145 nM
- Kd [3]: 25.3 nM

Substance: Bre1-LR D389K/D390K (from UniProt Q07457 227-700) (domain or fragment)
- Kd [4]: 75.5 nM

Substance: Bre1-LR I397K (from UniProt Q07457 227-700) (domain or fragment)
- Kd [4]: 40.7 nM

Substance: Lge1-CT (Lge1 residues 261–332), intein-chitin binding domain (CBD) tag construct (from UniProt Q02796 261-332) (domain or fragment)
- Kd [5]: 6720 nM
- dH [5]: -80 kcal/mol
- stoichiometry N [5]: 0.474
- Kd [6]: 41.9 nM
- dH [6]: -35.2 kcal/mol
- stoichiometry N [6]: 0.383
- Kd [7]: 122 nM
- dH [7]: -41.3 kcal/mol
- stoichiometry N [7]: 0.18
